Measurements from patent publication US7033991 (dated 2006).

Target: Furin (literature) (UniProt P09958)
Sequence (P09958 108-715): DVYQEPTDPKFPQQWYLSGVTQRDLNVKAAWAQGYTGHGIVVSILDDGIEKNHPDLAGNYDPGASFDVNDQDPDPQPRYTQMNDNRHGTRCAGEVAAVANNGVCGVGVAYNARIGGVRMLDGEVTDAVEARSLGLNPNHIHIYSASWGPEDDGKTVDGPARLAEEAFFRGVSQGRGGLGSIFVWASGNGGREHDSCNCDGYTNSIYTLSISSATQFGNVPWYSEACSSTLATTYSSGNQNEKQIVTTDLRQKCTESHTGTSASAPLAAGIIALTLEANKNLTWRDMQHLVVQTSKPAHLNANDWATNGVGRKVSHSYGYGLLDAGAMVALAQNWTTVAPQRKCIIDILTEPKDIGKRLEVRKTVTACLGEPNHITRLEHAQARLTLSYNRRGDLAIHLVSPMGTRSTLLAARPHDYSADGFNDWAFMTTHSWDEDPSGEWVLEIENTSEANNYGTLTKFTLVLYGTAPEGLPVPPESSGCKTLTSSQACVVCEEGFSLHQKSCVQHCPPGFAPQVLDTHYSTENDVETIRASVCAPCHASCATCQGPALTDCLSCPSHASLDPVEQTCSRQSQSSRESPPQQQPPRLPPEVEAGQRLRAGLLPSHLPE

B1: Proteinase inhibitor 8 (PI8) (protein)
chain: MDDLCEANGTFAISLFKILGEEDNSRNVFFSPMSISSALAMVFMGAKGSTAAQMSQALCLYKDGDIHRGFQSLLSEVNRTGTQYLLRTANRLFGEKTCDFLPDFKEYCQKFYQAELEELSFAEDTEECRKHINDWVAEKTEGKISEVLDAGTVDPLTKLVLVNAIYFKGKWNEQFDRKYTRGMLFKTNEEKKTVQMMFKEAKFKMGYADEVHTQVLELPYVEEELSMVILLPDDNTDLAVVEKALTYEKFKAWTNSEKLTKSKVQVFLPRLKLEESYDLEPFLRRLGMIDAFDEAKADFSGMSTEKNVPLSKVAHKCFVEVNEEGTEAAAATAVVRNSRCSRMEPRFCADHPFLFFIRHHKTNCILFCGRFSSP
Question: For B1, which Ki is on record?
Answer: The Ki was 0.0538 nM.
